Changes are numbered by the printed parent chain. Like-named read-outs stand apart in the source and are kept apart here.
B1: Mu12D10 (conjugate)
VH: EVKLVESEGGLVQPGSSMKLSCTASGFTFSDYFMAWVRQVPEKGLEWVASINYDGNSTYFLDSLKSRFIISRDNAKNILYLQMSSLKSEDTATYYCARDRGFYFDYWGQGTTLTVSS
VL: DVVMTQTPLSLPVSLGDQASISCRFSQSLVHRNGNTYLHWYLQKPGQSPKLLIYKVSNRFSGVPDRFSGSGSGTDFTLKISRVEAEDLGVYFCSQSTHVRPYTFGGGTKLEIR
modifications: conjugate
B2: Mu14C11 (conjugate)
VH: B1 VH with F33Y, N56S, F60Y, S85G, Y95S
VL: B1 VL with F25S, R100P, R113K
modifications: conjugate
B3: Mu27A12 (conjugate)
VH: B1 VH with F33Y, S50E, N56S, F60Y, S85N
VL: B1 VL with F25S, R32N, R100P, R113K
modifications: conjugate
B4: Mu34C3: murine anti-CS1 antibody, VH SEQ ID NO: 5, VL SEQ ID NO: 6; in Table 5 tested as MMAE, MMAF, duocarmycin ADCs (antibody, V domains shown)
VH: B1 VH with F33Y, N56S, F60Y, Y80F, S84N, F102Y
VL: B1 VL with F25S, R32S, R100P, Y102F, R113K
B5: Mu31D2 (conjugate)
VH: B1 VH with F33Y, S50D, N56G, F60Y, Y80C, F102Y
VL: B1 VL with F25S, R32S, R100P, Y102F, R113K
modifications: conjugate

What was measured:
OPM-2 xenografts = OPM-2 xenografts in effector-cell-negative NSG mice; type: in vivo
Description: (§1) OPM-2 xenografts were prepared and conducted as previously described. NSG mice (NOD.Cg-Prkdcscid Il2rgtm1Wj1/SzJ) from The Jackson Laboratory (strain code 05557) were used. This strain lacks effector cells and eliminates the ADCC mechanism for all antibodies. AB095, an antibody that targets tetanus toxoid, was run as control. Dosing of test ADCs was normalized such that equal masses of the PBD component were delivered.
as §1, with “toxoid” for “toxoid,”, “SN38” for “PBD”
The combination of Hu34C3-MMAE E2 plus carfilzomib inhibited tumor growth (TGImax 43% (FIG. 26A) and TGImax 59% (FIG. 26B)) at similar levels to Hu34C3-MMAE E2 alone.
Efficacy of Hu34C3-MMAE E2 in combination with pomalidomide ((also known as 4-Amino-2-(2,6-dioxopiperidin-3-yl)isoindole-1,3-dione; marketed under the tradename POMALYST by Celgene Corporation, Summit, N.J. 07901) and/or dexamethasone ((also known as 8S,9R,10S,11S,13S,14S,16R,17R)-9-fluoro-11,17-dihydroxy-17-(2-hydroxyacetyl)-10,13,16-trimethyl-6,7,8,9,10,11,12,13,14,15,16,17-dodecahydro-3H-cyclopenta[a]phenanthren-3-one) was determined in subcutaneous xenografts of OPM-2 cells (van Rhee et al., 2009 Mol. Cancer Therapeutics 8: 2616-24). Effector-cell-negative mice were used (NSG strain) in this experiment. Vehicle (PBS/DMSO) was run as a control. ADCs were dosed at 3 or 6 mg/kg i.p.; pomalidomide was dosed at 20 mg/kg i.p. and dexamethasone was dosed at 10 mg/kg i.p.
Efficacy of Hu34C3-MMAE E2 was determined in subcutaneous xenografts of OPM-2 cells (van Rhee et al., 2009 Mol. Cancer Therapeutics 8: 2616-24). These xenografts were treated with bortezomib twice a week for two weeks. […] These tumors were re-randomized and either continued with bortezomib treatment or were switched to lenalidomide plus dexamethasone, pomalidomide, Hu34C3-MMAE E2, or Hu34C3-MMAE E2 plus pomalidomide treatments.

[1] = system: L-363 human multiple myeloma cells; experiment: In vitro proliferation assay (CellTiter-Blue), L-363 cells; type: cell-based; conditions: four days
Description: All antibodies were conjugated to each of monomethyl auristatin E (“MMAE”; auristatin microtubule inhibitor), monomethyl auristatin F (“MMAF”; auristatin microtubule inhibitor) and duocarmycin (DNA damaging drug) using previously described methods (Doronina et al., 2003, Nat Biotechnology 21(7):778-784; Polson et al., 2007, Blood 1102:616-623). Drug loading for each ADC was similar. 10,000-20,000 cells (L-363 human multiple myeloma cells) expressing HuCS1 were plated into 96-well plates, and different amounts of ADCs added to the cells. Four days post addition of ADC, cell viability was measured using the CellTiter-Blue® Cell Viability Assay (Promega), and IC50 values were calculated.

human CS1 = biological target: T1, human CS1 (Homo sapiens, UniProt Q9NQ25); experiment: Flow-cytometry competition assay with AF488-labeled PDL241 (murine antibodies, Example 2); type: binding; conditions: 293s cells transfected with human CS1; 60 μg/mL unlabeled test antibody, 6 μg/mL labeled PDL241; less than 20% inhibition = does not compete
T1 construct: expressed in transfected cells; host or cells: 293s cells
T1 sequence (Q9NQ25 23-335): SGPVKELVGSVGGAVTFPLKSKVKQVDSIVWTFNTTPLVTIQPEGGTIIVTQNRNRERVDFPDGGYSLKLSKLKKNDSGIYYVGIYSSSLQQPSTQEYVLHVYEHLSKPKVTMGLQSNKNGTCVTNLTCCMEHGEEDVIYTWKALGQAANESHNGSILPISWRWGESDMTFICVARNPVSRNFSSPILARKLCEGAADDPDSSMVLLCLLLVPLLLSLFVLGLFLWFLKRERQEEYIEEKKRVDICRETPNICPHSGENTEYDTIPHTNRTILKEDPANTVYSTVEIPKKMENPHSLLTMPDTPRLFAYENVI
Description: 293s cells transfected with human CS1 (300,000 cells per data point) were incubated at various concentrations with an AF488-labeled PDL241 antibody. The concentration at which 80% of maximal binding occurred was identified (6 μg/mL) and used for the subsequent competition assays.
For the competition assays, transfected 293s cells (300,000 cells per data point) were incubated for 30 min (on ice) with a tenfold excess of unlabeled test antibody (60 μg/mL). After the incubation, 6 μg/mL of AF488-labeled PDL241 was added to the cells and incubated on ice for 30 minutes. After this incubation, the cells were washed with PBS+1% FBS, and binding of AF488-labeled PDL241 was determine by flow cytometry.

[2] = Example 29, low-dose Hu34C3-MMAE E2 3 mg/kg i.p., pomalidomide 20 mg/kg i.p., dexamethasone 10 mg/kg i.p.
[3] = antibody conjugated to MMAF, read-out: IC50, MMAF ADC
[4] = antibody conjugated to duocarmycin, read-out: IC50, Duo ADC
[5] = antibody conjugated to MMAE, read-out: IC50, MMAE ADC

Molecule | IC50 [1, 3] [nM] | IC50 [1, 4] [nM] | Competition with AF488-labeled PDL241 for binding (human CS1) | IC50 [1, 5] [nM] | also measured
Nc1cccc2c1C(=O)N(C1CCC(=O)NC1=O)C2=O (centres unmarked) [pomalidomide, 4-Amino-2-(2,6-dioxopiperidin-3-yl)isoindole-1,3-dione] | – | – | – | – | TGImax (OPM-2 xenografts; [2]): 34%
CC(C)C[C@H](NC(=O)[C@H](CCc1ccccc1)NC(=O)CN1CCOCC1)C(=O)N[C@@H](Cc1ccccc1)C(=O)N[C@@H](CC(C)C)C(=O)[C@@]1(C)CO1 [carfilzomib, (S)-4-Methyl-N-((S)-1-(((S)-4-methyl-1-((R)-2-methyloxiran-2-yl)-1-oxopentan-2-yl)amino)-1-oxo-3-phenylpropan-2-yl)-2-((S)-2-(2-morpholinoacetamido)-4-phenylbutanamido)pentanamide] | – | – | – | – | TGImax (OPM-2 xenografts; Example 28, single agents, carfilzomib at 1.5 and 3 mg/kg): < 10%
CC(C)C[C@H](NC(=O)[C@H](Cc1ccccc1)NC(=O)c1cnccn1)B(O)O [bortezomib, [(1R)-3-methyl-1-[[(2S)-1-oxo-3-phenyl-2-[(pyrazinylcarbonyl)amino]propyl]amino]butyl]boronic acid] | – | – | – | – | TGImax (OPM-2 xenografts; Example 27, Hu34C3-MMAE E2 3 mg/kg, bortezomib 1 mg/kg): 58%; TGImax at end of two week treatment (OPM-2 xenografts; Example 31, bortezomib twice a week for two weeks): 66%
C[C@@H]1C[C@H]2[C@@H]3CCC4=CC(=O)C=C[C@]4(C)[C@@]3(F)[C@@H](O)C[C@]2(C)[C@@]1(O)C(=O)CO [dexamethasone] | – | – | – | – | TGImax (OPM-2 xenografts; [2]): 25%
B1 | 0.15 | 0.2 | do not compete with PDL241 | – | –
B2 | 0.25 | 0.31 | do not compete with PDL241 | – | –
B3 | 0.11 | 0.19 | do not compete with PDL241 | 3.5 | –
B4 | 0.08 | 0.25 | do not compete with PDL241 | 1.3 | –
B5 | 0.12 | 0.2 | do not compete with PDL241 | 3.5 | –
